Results taken from patent US20140017764.

B1: TEV-PE10, purified (protein)
chain: HHHHHHSLFKGPRDYNPISSTICHLTNESDGHTTSLYGIGFGPFIITNKHLFRRNNGTLLVQSLHGVFKVKNTTTLQQHLIDGRDMIIIRMPKDFPPFPQKLKFREPQREERICLVTTNFQTKRMSSMVSDTSCTFPSSDGIFWKHWIQTKRGQCGSPLVSTRDGFIVGIHSASNFANTNKYFTSVPKNFMELLTNQEAQQWVSGWRLNADSVLWGGHKVFIPKPEEPFQPVKEATQLMN
B2: wild-type TEV protease (TEV-P), purified (protein)
chain: HHHHHHSLFKGPRDYNPISSTICHLTNESDGHTTSLYGIGFGPFIITNKHLFRRNNGTLLVQSLHGVFKVKNTTTLQQHLIDGRDMIIIRMPKDFPPFPQKLKFREPQREERICLVTTNFQTKSMSSMVSDTSCTFPSSDGIFWKHWIQTKDGQCGSPLVSTRDGFIVGIHSASNFTNTNNYFTSVPKNFMELLTNQEAQQWVSGWRLNADSVLWGGHKVFMPKPEEPFQPVKEATQLMN
B3: TEV-PH21, purified (protein)
chain: HHHHHHSLFKGPRDYNPISSAICHLTNESDGHTTSLYGIGFGPFIITNKHLFRRNNGTLLVQSLHGVFKVKNTTTLQQHLIDGRDMIIIRMPKDFPPFPQKLKFREPQREERICLVTTNFQTKSMSSMVSDTSCTFPSSDGIFWKHWIQAKPGQCGCPLVSTRDGFIVGIHTAANFANTNNYFTSVPKNFMELLTNQEAQQWVSGWRLNADSVLWGGHKVFMPKPEEPFQPVKEATQLMN

Molecular target: […] peptide substrate

Protein | KM [mM] | kcat [s⁻¹] | kcat/KM [mM⁻¹ s⁻¹]
B1 | 0.12 | 0.0194 | 0.16
B2 | 0.11 | 0.13 | 1.2
B3 | 0.82 | 0.0171 | 0.0207
